Source: article doi:10.1101/2025.06.13.659598

Target: nesprin-2G SR11-13 (spectrin repeats 11-13 of human nesprin-2) (human)
Assay: co-sedimentation

Chain of FHOD1 wild-type, full length (Q9Y613 whole entry): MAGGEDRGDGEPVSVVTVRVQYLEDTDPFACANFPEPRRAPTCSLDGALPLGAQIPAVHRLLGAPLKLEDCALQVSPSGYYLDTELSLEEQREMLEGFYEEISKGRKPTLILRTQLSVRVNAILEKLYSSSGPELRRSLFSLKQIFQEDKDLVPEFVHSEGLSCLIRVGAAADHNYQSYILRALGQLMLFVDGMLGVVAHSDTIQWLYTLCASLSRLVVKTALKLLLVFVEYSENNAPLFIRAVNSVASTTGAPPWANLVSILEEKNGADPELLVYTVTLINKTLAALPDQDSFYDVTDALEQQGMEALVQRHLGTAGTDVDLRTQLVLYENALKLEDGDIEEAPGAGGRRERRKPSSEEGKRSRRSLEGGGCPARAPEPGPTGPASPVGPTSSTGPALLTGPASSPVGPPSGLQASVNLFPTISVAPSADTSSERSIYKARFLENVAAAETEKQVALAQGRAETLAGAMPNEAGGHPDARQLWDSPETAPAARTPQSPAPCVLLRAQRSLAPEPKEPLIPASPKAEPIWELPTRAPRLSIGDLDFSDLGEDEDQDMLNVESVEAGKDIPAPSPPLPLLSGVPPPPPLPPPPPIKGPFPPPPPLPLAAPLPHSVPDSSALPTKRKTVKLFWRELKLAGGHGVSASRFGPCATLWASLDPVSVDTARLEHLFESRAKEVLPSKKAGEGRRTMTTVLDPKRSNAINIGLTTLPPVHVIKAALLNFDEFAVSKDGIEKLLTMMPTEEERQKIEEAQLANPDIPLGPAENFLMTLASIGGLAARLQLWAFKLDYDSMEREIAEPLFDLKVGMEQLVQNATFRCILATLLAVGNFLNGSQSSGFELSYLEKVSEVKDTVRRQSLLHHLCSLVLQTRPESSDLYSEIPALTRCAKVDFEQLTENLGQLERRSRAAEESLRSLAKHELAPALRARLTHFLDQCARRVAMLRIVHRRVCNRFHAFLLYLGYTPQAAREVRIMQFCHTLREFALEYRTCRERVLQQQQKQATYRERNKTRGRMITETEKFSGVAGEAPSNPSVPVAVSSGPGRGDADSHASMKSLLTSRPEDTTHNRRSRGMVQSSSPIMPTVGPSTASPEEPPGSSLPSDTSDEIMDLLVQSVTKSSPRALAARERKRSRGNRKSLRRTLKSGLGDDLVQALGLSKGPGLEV

stoichiometry N (scale: FHOD1 WT per SR11-13)	stoichiometry N (scale: FHOD3 WT per SR11-13)	Substance
1.18	–	FHOD1 wild-type, full length (from UniProt Q9Y613 1-1164) (natural protein)
–	1.3	FHOD3 wild-type (from UniProt Q2V2M9 1-1422) (natural protein)
